Reference: article PMC3094553 (Nature methods, 2009)
Values joined by “and” are separate entries in the source; they are usually repeats but may differ in a detail not shown here. Equal entries are not always repeated.

Target: the molecule itself
Test: SAXS

Row | Protein | stoichiometry N
1 | PF0014/0015 complex (complex) chain 1: MEEKKPVNLVLPEVENAIFIEGYPGVGLVGHIAANFLAKELDMDLIGYVDSLFIPPMSLILEGRPTPPLRFYGKNNIIIAIADIFLPPTLVNEIAKEIVNYLKKVNAEKVISLAGMGIGFFKDTFEVWGIGGSEEENKELESLGVKILKYGSITGMSGKLLWEASRAGLKSYVLLGETFGDRPDPRAAANVVEVLNKMLGLNVSVEPLLKEAEMIEEQLRRMHEQMEEARRKMERQYETMYL chain 2: MVVEIPLLSGIARRTLDALMRNPIRTVEIRNARNYMTLEKVKEGDLVFLTYESLEDVMRGTEGIIAMVTRMEKSHQRVPWEESDEREISICRVQLKLVGLGRVVEVQEKNGVVFVKVREMLHHEISMG | > 8

Target: the molecule itself
Test: SAXS
Remark: another data set of the same source

Row | Protein | stoichiometry N | percent of the sample as 2-mer [%]
2 | PF1911 (ferredoxin NADP reductase) (natural protein) MYKILEKKEIAMRNTWYKVYAPHVAKKVQPGQFVIVRAFPNGERIPLTPVMWDREEGWIVLIVFTRGKTTMRMAVELKEGDSLLNVAGPLGTPVPMEKFGKILAIGAYTGIVEVYPIAKAWQEIGNDVTTLHVTFEPMVILKEELEKAVTRHIVEPVPLNPNQDFLANMKNVSQRLKEKVRELLESEDWDLVFMVGPVGDQKQVFEVVKEYGVPMKVDLHPIMVDGTGMCGACRVTVGGEVKFACVDGPEFDAYQVDWDELIHRVGFYAKLEKLALEKYMEELKAKGVI | 2 | –
3 | PF0939 (isopropylmalate dehydratase) (natural protein) MKARGRAWKYGDNIDTDVIIPARYLNTSDPKELAQHVLEDLDPEFRYKMKPGDIIVAGENFGCGSSREHAPLAIKAAGVSAVIAKSFARIFYRNAINIGLPILEAPEAVERIETGDEIEIDFSTGEIRNLTKGEVYHANPFPEFIMEIIKAGGLVEWAKRRLAK | 2 | –
4 | PF0380 (conserved hypothetical protein) (natural protein) MGVEKVPKYDIPVKKVEYVFIELDKMKPHEQLVQRELEDFIESVTGSGIFWKPMLLAKIPGTDEYLIVDGHHRWAGLQKLGAKRAPSVILDYFDEGVKVYTWYPAFKGDVNKVIERLKAEGLEVIEDEKAEEKAEKGEIAFALIGEKSFAIPGGLEEQKKVSKVLDEMDQAKEIELVYYGLKEDAKADMEKGEIDYVFIRKAPTKEEVMELVKRGEVFSPKTTRHVLPFIPDKIDVKLEDLF | 2 | 68
5 | PF0715 (NADH oxidase) (natural protein) MEFFEVLKKRRSIRRFQDKPVPRELIEKLLEAAFLSPSSYNKRPCHFIVVDDREKLEALSKSKLGASGLKTAPVAIVVTADESKSDVWIEDASIAAEHIHLASYALGLASFWVQIRNRMHNETKTAEEYVRELLNIPENYRVLCIIGVGYPAEDKPPHGNEVFEWEKVSYNEFGKRFK | 2 | –
6 | PF1291 (phosphoesterase) (natural protein) MVYVAVLANIAGNLPALTAALSRIEEMREEGYEIEKYYILGNIVGLFPYPKEVIEVIKDLTKKENVKIIRGKYDQIIAMSDPHATDPGYIDKLELPGHVKKALKFTWEKLGHEGREYLRDLPIYLVDKIGGNEVFGVYGSPINPFDGEVLAEQPTSYYEAIMRPVKDYEMLIVASPMYPVDAMTRYGRVVCPGSVGFPPGKEHKATFALVDVDTLKPKFIEVEYDKKIIEERIRAEGLPEEIIKILYHGGRP | 4 | –
7 | PF0619 (conserved hypothetical protein) (natural protein) MLVPGRVYLFRIPEGKEIIEFLREFAEKENIKVGIISAIGTLRNPVIGYFMEEEKKYKEISLTGTYELLSLSGNISLKDGKPFVHAHVVLGDSEGRAFGGHLVRGEVFVAEVFVQELEGETLERKPTEHGLALW | 3 | –
8 | PF0230 (ArsR transcription regulator) (natural protein) MTKRVKVITDPEVIKVMLEDTRRKILQLLRNREMTISQLSEILGKMPQTIYHHIEKLKEAGLVEVKRTEMKGNLVEKYYGRTADVFYINLYMGDEELRYLARSRLKTKLDIFKKLGYKFDEEELLNVMDRILEKEHEVKVEISKEIENVEDSLKEFSNEDIIHAIEWLAMARLAQDEEYIELVKKLGQILKR | 2 | –
9 | PF1950 (phosphoribosyl transferase) (natural protein) MKKFPAYLASWEDIENWAKAGAWKVLESGWMPDVIVGLARGGWIAARLYCDYLGVKDLVSIKVEHWGVTATPDGRARLKYGAQYDFEGKKVLIVDDITDTGESMSLAYEYMKSRNPAEIRTATLLNIKGSKFVPDYYAKDIDWVWVVFPWNFVEDMINLTNNLFEEKDKLTTDEIISLFKELHGIEVPREKLEEALRMAEKRKIFKFENGFWTKV | 2 | –
10 | PF1372 (conserved hypothetical protein) (natural protein) MTEIRYYKIGEDRFKISEDEVARRELRVAKVSDDVIQIQEEVHGIIALVGATSSVNIKKEELKELVKLVREEFGWDI | 4 | –
11 | PF1033 (thioredoxin-like fold) (natural protein) MIVIGEKFPEVEVKTTHGVIKLPDHFTKQGKWFMLFSHPADFTPVCTTEFYGLQIRLEKFRELGVEPIGLSVDQVFSHLKWMEWIKEKLGVEIEFPVIADDRGDLAEKLGMIPSGSTITARAVFIVDDKGIIRAIVYYPAEVGRDWDEILRLVKALKISTEKGVALPHKWPNNELIGDKVIVPPASSVEQIKEREEAKAKGEIECYDWWFCYKKLE | 10 | –
12 | PF0259 (conserved hypothetical protein) (natural protein) MAVIIEFSLIPLGEVSVSKYIAEAIKLLEEKGVKYQLTPMGTIIEVGSVEEGLKIVGEAHELMFKLGVKRVVTHIKIDDRRDKERKMEDKVKSVIEKVKK | 8 | –
13 | ferredoxin (PF1909, Fd) (natural protein) AWKVSVDQDTCIGDAICASLCPDVFEMNDEGKAQPKVEVIEDEELYNCAKEAMEACPVSAITIEEA | 2 | 40
14 | acetyl-CoA synthetase subunit (PF1787) (natural protein) MDRVAKAREIIEKAKAENRPLVEPEAKEILKLYGIPVPEFKVARNEEEAVKFSGEIGYPVVMKIVSPQIIHKSDAGGVKINIKNDEEAREAFRTIMQNARNYKPDADLWGVIIYRMLPLGREVIVGMIRDPQFGPAVMFGLGGIFVEILKDVSFRVAPITKEDALEMIREIKAYPILAGARGEKPVNIEALADIIVKVGELALELPEIKEIDINPIFAYEDSAIAVDARMIL | 3 | –
15 | superoxide reductase (PF1281, SOR) (enzyme) MISETIRSGDWKGEKHVPVIEYEREGELVKVKVQVGKEIPHPNTTEHHIRYIELYFLPEGENFVYQVGRVEFTAHGESVNGPNTSDVYTEPIAYFVLKTKKKGKLYALSYCNIHGLWENEVTLE | 4 | –
16 | PF0094 (glutaredoxin-like) (natural protein) MGLISDADKKVIKEEFFSKMVNPVKLIVFVRKDHCQYCDQLKQLVQELSELTDKLSYEIVDFDTPEGKELAKRYRIDRAPATTITQDGKDFGVRYFGLPAGHEFAAFLEDIVDVSREETNLMDETKQAIRNIDQDVRILVFVTPTCPYCPLAVRMAHKFAIENTKAGKGKILGDMVEAIEYPEWADQYNVMAVPKIVIQVNGEDRVEFEGAYPEKMFLEKLLSALS | 4 and 2 | 92
